From patent publication US20180258175A1 (ABLEXIS, published 2018)
Changes are numbered by the printed parent chain.

B1: CCK423A-IgG1κ (fully human) (antibody, V domains shown)
VH: QVQLEQSGAEVKRPGASVKVSCKASGYTFTGYYMHWVRQAPGQGLEWMGWINPNRGDTNYAQKFQGRVTMTRDTSISTAYMELSRLRSDDTAVYYCARDLEGGGPFDYWGQGTLVTVSS
VL: DIVMTQTPLSLPVTPGEPASISCRSSQSLLDSDDGNTYLDWYLQKPGQSPQLLIYTLSYRASGVPDRFSGSGSGTDFTLKISRVEAEDVGVYYCMQRIEFPSTFGQGTRLEIK
notes: also called Human IgG1κ; CCK423A-I IgG1κ
B2: CCK423A-IgG2κ (fully human) (antibody, V domains shown)
VH: B1 VH
VL: B1 VL
notes: also called Human IgG2κ
B3: CCK423A-IgG4κ (fully human) (antibody, V domains shown)
VH: B1 VH
VL: B1 VL
notes: also called Human IgG4κ; CCK423A-IgG4K
B4: CCK-415A (antibody, V domains shown)
VH: QVQLQESGPGLVKPSETLSLTCTVSGGSISSSYWTWIRQPPGKGLEWIGYIHYSGSTNYNPSLKSRVTISVDTSKNQFSLKLSSVTAADTAVYYCARGFDYWGQGTLVTVSS
VL: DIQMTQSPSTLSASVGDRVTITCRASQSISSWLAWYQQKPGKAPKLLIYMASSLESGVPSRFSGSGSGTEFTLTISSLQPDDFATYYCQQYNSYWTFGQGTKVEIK
notes: AlivaMab chimeric IgG, human kappa LC
B5: CCK-416A (antibody, V domains shown)
VH: EVQLVESGGDLVQPGGSLRLSCADSRFTFSSYSMNWVRQAPGKGLEWVSYISPSSSTIYYADSVRGRFTISRDNAKNSLYLQMNSLRNEDTAVYYCARDFPHDYGYYPHYFDYWGQGTLVTVSS
VL: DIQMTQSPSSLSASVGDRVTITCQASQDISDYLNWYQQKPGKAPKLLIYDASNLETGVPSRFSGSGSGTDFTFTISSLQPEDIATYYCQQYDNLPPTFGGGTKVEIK
notes: as for B4
B6: CCK-465A (antibody, V domains shown)
VH: QVQLQESGPGLVKPSETLSLSCTVSGGSISSYYWSWIRQPAGKGLEWIGRIYTSGSTNYNPSLKSRVTMSVDTSKNQFSLKLSSVTAADTAVYYCARDRSFYGMDVWGQGTTVTVSS
VL: DIQMTQSPSSLSASVGDRVTITCRASQGFSNYLAWYQQKPGKVPKLLIYAASTLQSGVPSRFSGSGSGTDFTLTISSLQPEDVATYYCQKYNSAPLTFGGGTKVEIK
notes: as for B4
B7: CCK-541A (antibody, V domains shown)
VH: QVQLQESGPGLVKPSETLSLTCTVSGASISTYFWSWLRQPPGKGLEWIGYIFYSGSINYNPSLKSRVTISVDTSKNQFSLELSSVTAADTAVYYCARDRTFYGMDVWGQGTTVTVSS
VL: EIVLTQSPGTLSLPPGERATLSCRASQNVSSTYLAWYHQKPGQAPRLLIYGASSRATGIPDRFSGSGSGTDFTLTISRLEPEDFAVYYCQQYGSSPRTFGQGTKVEIK
notes: as for B4
B8: CCL-337A (antibody, V domains shown)
VH: QVQLQESGPGLVKPSETLSLTCTVSGGSINSYYWSWIRQPAGKGLEWIGRIYTSGNTNYNPSLKSRVTMSVDTSKNLFSLKLSSVTAADTAVYYCARERLTGYFDYWAQGTLVTVSS
VL: not shown
notes: AlivaMab chimeric IgG, human lambda LC
B9: CCL-247A (antibody, V domains shown)
VH: B8 VH with G26D, N30S, N56S, L77Q, S83T, L100I, G102S, Y103F, Y106P, A108G
VL: not shown
notes: as for B8
B10: CCL-216A (antibody, V domains shown)
VH: QVQLQESGPGLVKPSETLSLTCTVSGDSISNYYWSWIRQPAGKGLEWIGRIYTSGSTNNNPSLKSRVTMSVDTSKNQFSLKLSSVTAADTAVYYCARERINWFDPWGQGTLVTVSS
VL: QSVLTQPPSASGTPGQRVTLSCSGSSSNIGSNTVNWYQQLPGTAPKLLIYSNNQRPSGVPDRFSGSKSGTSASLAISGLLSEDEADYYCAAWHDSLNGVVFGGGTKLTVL
notes: as for B8
B11: CCL-328A (antibody, V domains shown)
VH: B10 VH with D27G, N31S, N59Y, V71I, E98S, I100L, N101G, W102I, P105Y
VL: not shown
notes: as for B8
B12: CCL-204A (antibody, V domains shown)
VH: B8 VH with V24I, G26S, N30S, N56S, N60H, L77H, S83T, Y103F, A108G
VL: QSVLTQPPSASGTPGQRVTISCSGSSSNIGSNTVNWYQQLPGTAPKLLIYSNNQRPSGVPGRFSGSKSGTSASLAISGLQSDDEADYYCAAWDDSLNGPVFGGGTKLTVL
notes: as for B8
B13: CCL-205A (antibody, V domains shown)
VH: QVQLQESGPGLVKPSETLSLTCTVSGGSISSYYWSWIRQPAGKGLEWIGRIYISGSIYNNPSLKSRVTMSVDTSKNQFSLKLSSVTAADTAVYYCARDRVGMTFDIWGQGTMVTVSS
VL: not shown
notes: as for B8
B14: CCL-211A (antibody, V domains shown)
VH: QVQLQESGPGLVKPSETLSLTCTVSGGSISSYYWSWIRQPAGKGLEWIGRIYISGTTNYNPSLMSRVTMSVDTSKNQFSLKLTSVTAADTAVYYCARERLVRAFDIWGQGTMVTVSS
VL: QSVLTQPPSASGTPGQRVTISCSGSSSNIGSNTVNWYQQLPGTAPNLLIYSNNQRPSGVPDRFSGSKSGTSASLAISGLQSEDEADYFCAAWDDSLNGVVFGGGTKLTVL
notes: as for B8
B15: CCL-346A (antibody, V domains shown)
VH: B8 VH with N30S, I51F, N56S, N58S, Y59C, L77Q, R99G, L100I, T101L, A108G
VL: not shown
notes: as for B8
B16: CCL-309A (antibody, V domains shown)
VH: EVQLVESGGGLVQPGGSLRLSCAASGFTFSTYSMNWVRQAPGKGLEWVSYISSSSAIIYYADSVKGRFTISRDNAKNSLYLQMNSLRDEDTAVYYCARDLPITMIVVVMPDAFDIWGQGTMVTVSS
VL: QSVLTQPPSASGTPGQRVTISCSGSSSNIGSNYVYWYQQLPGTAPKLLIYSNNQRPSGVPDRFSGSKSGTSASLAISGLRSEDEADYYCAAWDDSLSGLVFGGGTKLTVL
notes: as for B8
B17: CCL-321A (antibody, V domains shown)
VH: EVQLVESGGGLVQPGGSLRLSCAASGFTFSSYSMNWVRQAPGKGLEWVSYISSSSSTIYYSDSVRGRFTISRDNAKNSLYLQMDSLRDEDTAVYYCARDSTMIVVVKVPDAFDIWGQGTMVTVSS
VL: not shown
notes: as for B8
B18: CCL-325A (antibody, V domains shown)
VH: QVQLQESGPGLVKPSETLSLTCTVSGGSISSYYWSWIRQSAGKGLEWIGHIYTSGSTNYNPSLKSRVTMSVDTSKNQFSLKLSSVTAADTAVYYCARERTVVTYFDYWGQGTLVTVSS
VL: not shown
notes: as for B8
B19: CCL-332A (antibody, V domains shown)
VH: EVQLVESGGGLVQPGGSLRLSCAASGFTFSSYSMNWVRQAPGKGLEWVSYISSSSSTIYYADSVKGRFTISRDNAKNSLYLQMNSLRDEDTAVYYCARDYYGSSGYYYPHAFDIWGQGTMVTVSS
VL: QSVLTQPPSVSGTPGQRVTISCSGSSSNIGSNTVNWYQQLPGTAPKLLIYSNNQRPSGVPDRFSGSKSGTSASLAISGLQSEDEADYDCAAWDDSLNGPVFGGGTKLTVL
notes: as for B8
B20: CCL-213A (antibody, V domains shown)
VH: QVQLQESGPGLVKPSETLSLTCTVSGGSISSYYWSWIRQPAGKGLEWIGRIYTSGSTKNPSLKSRVTMSVDTSKNQFSLKLSSVTAADTAVYYCARLTVVGALDYWGQGTLVTVSS
VL: not shown
notes: as for B8

Target: T1, human CD115 extracellular domain (Sino Biological 10161-H08H) (human, UniProt P07333 20-517)
T1 construct: extracellular domain; bought recombinant protein; also called huCD115; hu-CD115
Test: ELISA, blocking of biotin-CSF-1 binding to coated hu-CD115

Row | Binder | IC50 [nM]
1 | B1 | 0.146
2 | B2 | 0.253
3 | B3 | 0.133

Target: T1, human CD115 extracellular domain (Sino …)
Test: SPR ProteOn, mAb amine coupled, Hu CD115 analyte

Row | Binder | Kd [nM] | koff [s⁻¹] | kon [M⁻¹ s⁻¹]
4 | B1 | 1.2 | 0.017 | 1.2e+07
5 | B2 | 1.3 | 0.014 | 1.3e+07
6 | B3 | 1.3 | 0.015 | 1.1e+07

Target: T1, human CD115 extracellular domain (Sino …)
Test: competition ELISA, competitor TMR 44B;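 note: binding of antibodies from single-clone hybridoma supernatants to huCD115 measured with the competitor antibody present, a drop in signal meaning both share an epitope bin; low signal means same epitope bin as the mouse competitor antibody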

Row | Binder | signal vs NO COMP=100 [%]
7 | B4 | 46
8 | B5 | 53
9 | B6 | 8
10 | B7 | 15

Target: T1, human CD115 extracellular domain (Sino …)
Test: competition ELISA, competitor TMR 95A;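 note: clonal anti-huCD115 hybridoma supernatants tested for binding while a competitor mouse antibody is present, where failure to bind assigns them to that competitor's epitope bin; low signal means same epitope bin as the mouse competitor antibody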

Row | Binder | signal vs NO COMP=100 [%]
11 | B4 | 11
12 | B5 | 21
13 | B6 | 41
14 | B7 | 42

Target: T2, native CD115 on OCI-AML5 cells (UniProt P07333 20-972, limits assumed)
T2 construct: whole, on cells; cell line endogenous receptor; also called CD115 expressed on OCI-AML5 cells; CD115 expressing AML5 cells
Test: FACS, supernatant on OCI-AML5 cells

Row | Binder | binding result
15 | B8 | binds
16 | B9 | binds
17 | B10 | binds
18 | B11 | binds
19 | B12 | binds
20 | B13 | binds
21 | B14 | binds
22 | B15 | binds
23 | B16 | binds
24 | B17 | binds
25 | B18 | binds
26 | B19 | binds
27 | B20 | binds

Target: T1, human CD115 extracellular domain (Sino …)
Test: competition ELISA, competitor TMR 20A;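 note: epitope binning by ELISA, anti-huCD115 hybridoma supernatant antibodies tested for binding to huCD115 with the competitor antibody present, loss of binding placing them in the competitor's bin; low signal means same epitope bin as the mouse competitor antibody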

Row | Binder | signal vs NO COMP=100 [%]
28 | B4 | 97
29 | B5 | 94
30 | B6 | 78
31 | B7 | 34

Target: T1, human CD115 extracellular domain (Sino …)
Test: ELISA, supernatant on huCD115

Row | Binder | binding result
32 | B8 | binds
33 | B9 | binds
34 | B10 | binds
35 | B11 | binds
36 | B12 | binds
37 | B13 | binds
38 | B14 | binds
39 | B15 | binds
40 | B16 | binds
41 | B17 | binds
42 | B18 | binds
43 | B19 | binds
44 | B20 | binds

Target: T1, human CD115 extracellular domain (Sino …)
Test: competition ELISA, competitor TMR 24A;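 note: clonal anti-huCD115 hybridoma supernatant antibodies bound with a competitor mouse antibody present, and failure to bind puts a clone in that competitor's epitope bin; low signal means same epitope bin as the mouse competitor antibody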

Row | Binder | signal vs NO COMP=100 [%]
45 | B4 | 31
46 | B5 | 37
47 | B6 | 81
48 | B7 | 109

Target: T1, human CD115 extracellular domain (Sino …)
Test: SPR ProteOn, supernatant mAb captured on anti-mouse IgG, Hu CD115 analyte

Row | Binder | Kd [nM] | koff [s⁻¹] | kon [M⁻¹ s⁻¹]
49 | B6 | 1.41 | 0.000749 | 531000
50 | B7 | 1.4 | 0.000374 | 267000

Target: T1, human CD115 extracellular domain (Sino …)
Test: competition ELISA, competitor TMR 100A

Row | Binder | signal vs NO COMP=100 [%]
51 | B4 | 93
52 | B5 | 104
53 | B6 | 92
54 | B7 | 93

Target: T1, human CD115 extracellular domain (Sino …)
Test: competition ELISA, competitor TMR 35A

Row | Binder | signal vs NO COMP=100 [%]
55 | B4 | 96
56 | B5 | 107
57 | B6 | 88
58 | B7 | 111

Target: T1, human CD115 extracellular domain (Sino …)
Test: ELISA, blocking of biotin-CSF-1 binding to coated hu-CD115
Remark: another data set of the same source

Row | Binder | IC50 [nM]
59 | B4 | 0.355
60 | B5 | 0.811

Target: T2, native CD115 on OCI-AML5 cells
Test: cell-based or functional assay

Row | Binder | IC50, inhibition of CSF-1 induced P-Tyr on CD115 [nM]
61 | B1 | 0.068
62 | B2 | 0.059
63 | B3 | 0.06

Target: T2, native CD115 on OCI-AML5 cells
Test: cell-based or functional assay
Remark: another data set of the same source

Row | Binder | IC50, inhibition of CSF-1 induced phosphorylation of CD115 [nM]
64 | B4 | 0.57
65 | B5 | 1.35
